Data set [1] has as its system J2 IgG WT, PDB:9OJV_1+PDB:9OJV_2. The data set is described as follows: FP competition. As to conditions: vs 3'-FAM VA-I RNA; BLI: 25 mM Tris-HCl pH 7.5, 100-400 mM KCl (per row), 2 mM MgCl2, 25 C, IgG immobilized on Protein A; FP: 25 mM Tris-HCl pH 7.5, 100 mM KCl, 2 mM MgCl2, 21 C.
Data set [2] shares this test system. In words: BLI steady state. The conditions noted are these: BLI: 25 mM Tris-HCl pH 7.5, 100-400 mM KCl (per row), 2 mM MgCl2, 25 C, IgG immobilized on Protein A, FP: 25 mM Tris-HCl pH 7.5, 100 mM KCl, 2 mM MgCl2, 21 C.
Data set [3] has as its system J2 IgG HC A30P, PDB:9OJV_1+PDB:9OJV_2. The data set is described as follows: BLI steady state. The conditions noted are these: 100 mM KCl; kinetic Kd 28 ± 14 nM; BLI: 25 mM Tris-HCl pH 7.5, 100-400 mM KCl (per row), 2 mM MgCl2, 25 C, IgG immobilized on Protein A; FP: 25 mM Tris-HCl pH 7.5, 100 mM KCl, 2 mM MgCl2, 21 C.
In data set [4] the test system is J2 IgG HC Y50F, PDB:9OJV_1+PDB:9OJV_2. In words: BLI steady state. The conditions noted are these: 100 mM KCl; kinetic Kd 94 ± 49 nM; BLI: 25 mM Tris-HCl pH 7.5, 100-400 mM KCl (per row), 2 mM MgCl2, 25 C, IgG immobilized on Protein A; FP: 25 mM Tris-HCl pH 7.5, 100 mM KCl, 2 mM MgCl2, 21 C.
Data set [5] relates to J2 IgG HC Y52F, PDB:9OJV_1+PDB:9OJV_2. In words: BLI steady state. As to conditions: 100 mM KCl; kinetic Kd 210 ± 20 nM; BLI: 25 mM Tris-HCl pH 7.5, 100-400 mM KCl (per row), 2 mM MgCl2, 25 C, IgG immobilized on Protein A; FP: 25 mM Tris-HCl pH 7.5, 100 mM KCl, 2 mM MgCl2, 21 C.
Data set [6] relates to J2 IgG HC Y54A, PDB:9OJV_1+PDB:9OJV_2. In words: BLI steady state. As to conditions: 100 mM KCl; kinetic Kd 270 ± 10 nM; BLI: 25 mM Tris-HCl pH 7.5, 100-400 mM KCl (per row), 2 mM MgCl2, 25 C, IgG immobilized on Protein A; FP: 25 mM Tris-HCl pH 7.5, 100 mM KCl, 2 mM MgCl2, 21 C.
The test system of data set [7] is J2 IgG HC Y54F, PDB:9OJV_1+PDB:9OJV_2. The data set is described as follows: BLI steady state. The conditions noted are these: 100 mM KCl; kinetic Kd 250 ± 40 nM; BLI: 25 mM Tris-HCl pH 7.5, 100-400 mM KCl (per row), 2 mM MgCl2, 25 C, IgG immobilized on Protein A; FP: 25 mM Tris-HCl pH 7.5, 100 mM KCl, 2 mM MgCl2, 21 C.
Data set [8] deals with J2 IgG LC Y31A, PDB:9OJV_1+PDB:9OJV_2. In words: BLI steady state. The conditions noted are these: 100 mM KCl; kinetic Kd 207 ± 21 nM; BLI: 25 mM Tris-HCl pH 7.5, 100-400 mM KCl (per row), 2 mM MgCl2, 25 C, IgG immobilized on Protein A; FP: 25 mM Tris-HCl pH 7.5, 100 mM KCl, 2 mM MgCl2, 21 C.
The test system of data set [9] is J2 IgG LC Y31F, PDB:9OJV_1+PDB:9OJV_2. In words: BLI steady state. As to conditions: 100 mM KCl; kinetic Kd 130 ± 20 nM; BLI: 25 mM Tris-HCl pH 7.5, 100-400 mM KCl (per row), 2 mM MgCl2, 25 C, IgG immobilized on Protein A; FP: 25 mM Tris-HCl pH 7.5, 100 mM KCl, 2 mM MgCl2, 21 C.
Data set [10] relates to J2 IgG LC Y38F, PDB:9OJV_1+PDB:9OJV_2. In words: BLI steady state. As to conditions: 100 mM KCl; kinetic Kd 83 ± 14 nM; BLI: 25 mM Tris-HCl pH 7.5, 100-400 mM KCl (per row), 2 mM MgCl2, 25 C, IgG immobilized on Protein A; FP: 25 mM Tris-HCl pH 7.5, 100 mM KCl, 2 mM MgCl2, 21 C.
Data set [11] deals with J2 IgG WT, PDB:9OJV_1+PDB:9OJV_2. The data set is described as follows: FP. The conditions noted are these: BLI: 25 mM Tris-HCl pH 7.5, 100-400 mM KCl (per row), 2 mM MgCl2, 25 C, IgG immobilized on Protein A; FP: 25 mM Tris-HCl pH 7.5, 100 mM KCl, 2 mM MgCl2, 21 C.
Data set [12] has as its target T1, J2 IgG heavy chain (HC-TEV-His8);J2 IgG light chain (Mus musculus;Mus musculus, UniProt ; ;, |). The data set is described as follows: BLI; 100 mM KCl; BLI: 25 mM Tris-HCl pH 7.5, 2 mM MgCl2, KCl 100 mM (6-20 bp and mutants), 200 mM (30 bp) or 400 mM (40, 50 bp), 25 C; IgG immobilised on Protein A probes. The conditions noted are these: protein: recombinant;recombinant; tags: His8 (C-term);; chain copies: 2;2; blunt.

In data set [13] the target is T1, J2 IgG heavy chain (HC-TEV-His8);J2 IgG …. The data set is described as follows: BLI; 400 mM KCl; BLI: 25 mM Tris-HCl pH 7.5, 2 mM MgCl2, KCl 100 mM (6-20 bp and mutants), 200 mM (30 bp) or 400 mM (40, 50 bp), 25 C; IgG immobilised on Protein A probes. The conditions noted are these: protein: recombinant;recombinant, tags: His8 (C-term);, chain copies: 2;2. For orientation: BLI is a label-free optical method that tracks binding on a fibre tip over time.

For data set [14] the target is unchanged. The data set is described as follows: BLI; 200 mM KCl; BLI: 25 mM Tris-HCl pH 7.5, 2 mM MgCl2, KCl 100 mM (6-20 bp and mutants), 200 mM (30 bp) or 400 mM (40, 50 bp), 25 C; IgG immobilised on Protein A probes. As to conditions: protein: recombinant;recombinant, tags: His8 (C-term);, chain copies: 2;2.

T1 sequence (chain, as listed by the source |, chain 1 of 2): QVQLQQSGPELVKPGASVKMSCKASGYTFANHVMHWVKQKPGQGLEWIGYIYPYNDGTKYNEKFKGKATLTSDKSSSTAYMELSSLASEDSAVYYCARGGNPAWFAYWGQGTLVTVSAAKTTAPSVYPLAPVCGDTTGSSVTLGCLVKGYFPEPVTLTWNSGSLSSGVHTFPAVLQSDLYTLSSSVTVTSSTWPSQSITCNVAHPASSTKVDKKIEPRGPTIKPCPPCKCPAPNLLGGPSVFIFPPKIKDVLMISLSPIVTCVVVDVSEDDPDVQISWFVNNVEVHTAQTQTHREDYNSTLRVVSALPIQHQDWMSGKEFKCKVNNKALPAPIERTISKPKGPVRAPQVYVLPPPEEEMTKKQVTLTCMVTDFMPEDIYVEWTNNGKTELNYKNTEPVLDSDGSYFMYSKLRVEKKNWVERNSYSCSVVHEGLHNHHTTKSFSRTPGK
T1 sequence (chain, as listed by the source |, chain 2 of 2): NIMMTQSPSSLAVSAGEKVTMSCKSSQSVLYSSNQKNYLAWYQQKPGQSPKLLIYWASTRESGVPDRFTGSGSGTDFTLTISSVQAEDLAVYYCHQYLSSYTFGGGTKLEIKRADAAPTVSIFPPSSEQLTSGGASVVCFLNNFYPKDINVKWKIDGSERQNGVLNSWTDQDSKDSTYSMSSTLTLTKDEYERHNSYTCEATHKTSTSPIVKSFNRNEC

As usually defined, the IC50 is the midpoint of a concentration-inhibition curve. By Kd is commonly meant the equilibrium constant for the complex coming apart. In the case of “GUUGUAAAGAAAUAUAACAGGCUUGUACCAUUGAUGGAAAAGAACAACGU / ACGUUGUUCUUUUCCAUCAAUGGUACAAGCCUGUUAUAUUUCUUUACAAC [50-bp dsRNA]”, the IC50 in [1] is 0.017 µM. This molecule also had a Kd in data set [2] of 0.022 µM.

“GUUGUAAAGAAAUAUAGGCU / AGCCUAUAUUUCUUUACAAC [20-bp dsRNA]”: the Kd in [3] came to 0.12 µM; in data set [4], 0.43 µM; in data set [5] it was 0.22 µM; in data set [6], 0.3 µM; in data set [7], 0.71 µM; in data set [8], 0.94 µM. The dissociation constant (Kd) turned out to be 0.36 µM in data set [9]; 0.15 µM in data set [10]; 0.12 µM in data set [2] (100 mM KCl, kinetic Kd 150 ± 80 nM).

On to 3'-FAM Adenovirus VA-I RNA, for which the Kd in [11] came to 0.032 µM.

The molecule “GUUGUAAAGAAAUAUAACAGGCUUGUACCA / UGGUACAAGCCUGUUAUAUUUCUUUACAAC [30-bp dsRNA]” gave an equilibrium dissociation constant (Kd) in data set [2] (200 mM KCl, kinetic Kd 37 ± 7 nM) of 0.047 µM.

Take “GUUGUAAAGAAGGU / ACCUUCUUUACAAC [14-bp dsRNA]”: the Kd in data set [2] (100 mM KCl, kinetic Kd 1400 ± 800 nM) came to 2.1 µM.

Take “GUUGUAAAGAAAUAUAACAGGCUUGUACCAUUGAUGGAAA / UUUCCAUCAAUGGUACAAGCCUGUUAUAUUUCUUUACAAC [40-bp dsRNA]”: the Kd in [2] (400 mM KCl, kinetic Kd 33 ± 6 nM) was found to be 0.08 µM.

B1: 6-bp dsRNA (dsRNA)
RNA 1: GUUGUA
RNA 2: UACAAC
As for B1, in data set [12], the binding result was “no binding”.

B2: 40-bp AU-dinucleotide dsRNA (dsRNA)
RNA 1: AUAUAUAUAUAUAUAUAUAUAUAUAUAUAUAUAUAUAUAU
RNA 2: AUAUAUAUAUAUAUAUAUAUAUAUAUAUAUAUAUAUAUAU
B2: the dissociation constant Kd in data set [13] came out at 0.091 ± 0.011 µM.

B3: 30-bp dsRNA 47% GC (dsRNA)
RNA 1: GUUGUCCAGAAGGUCAAUAGCGUACCAAAC
RNA 2: GUUUGGUACGCUAUUGACCUUCUGGACAAC
Regarding B3, the Kd in data set [14] (blunt) is 0.11 ± 0.02 µM.

B4: 30-bp dsRNA 17% GC (dsRNA)
RNA 1: GUUGUAAAUAAGUUCAAUAUUAUACUAAAU
RNA 2: AUUUAGUAUAAUAUUGAACUUAUUUACAAC
Consider B4, for which the dissociation constant (Kd) in data set [14] (blunt) was 0.036 ± 0.022 µM.

B5: 50-bp dsRNA (dsRNA)
RNA 1: GUUGUAAAGAAGGUCAAUAUUGUACCAAACUUGAUGGAAAAGAACAACGU
RNA 2: ACGUUGUUCUUUUCCAUCAAGUUUGGUACAAUAUUGACCUUCUUUACAAC
Consider B5, for which the Kd in [13] (blunt) stood at 0.022 ± 0.008 µM.

B6: 30-bp dsRNA 3% GC (dsRNA)
RNA 1: AUUAUAAAUAAUUUCAAUAUUAUAUUAAAU
RNA 2: AUUUAAUAUAAUAUUGAAAUUAUUUAUAAU
Regarding B6, the Kd in [14] was found to be 0.22 ± 0.09 µM.

B7: 30-bp dsRNA 0% GC (dsRNA)
RNA 1: AUUAUAAAUAAUUUAAAUAUUAUAUUAAAU
RNA 2: AUUUAAUAUAAUAUUUAAAUUAUUUAUAAU
Turning to B7, the Kd in data set [14] was determined as 0.29 ± 0.06 µM.

B8: 14-bp dsRNA (dsRNA)
RNA 1: GUUGUAAAGAAGGU
RNA 2: ACCUUCUUUACAAC
Regarding B8, in [12], the dissociation constant (Kd) is 2.1 ± 0.6 µM.

B9: 40-bp dsRNA (dsRNA)
RNA 1: GUUGUAAAGAAGGUCAAUAUUGUACCAAACUUGAUGGAAA
RNA 2: UUUCCAUCAAGUUUGGUACAAUAUUGACCUUCUUUACAAC
As to B9, the Kd in data set [13] (blunt) was 0.08 ± 0.015 µM.

(Values after article PMC12816604, “Structural basis of double-stranded RNA recognition by the J2 monoclonal antibody”.)
